In patent publication US20250333508A1:

What was measured:
[1] = target: human CTLA-4 his tag antigen (human) (UniProt P16410); test: ELISA on coated human CTLA-4 his tag protein, goat anti-human IgG-Fc HRP; unit from the axis; the isotype curve is flat at OD450 0, so the number comes from a fit of a flat line
[2] = target: murine CTLA-4. his tag protein (murine) (UniProt P09793); test: ELISA on coated mouse CTLA-4 his tag protein, goat anti-human IgG-Fc HRP; unit from the axis; the isotype curve is flat at OD450 0, so the number comes from a fit of a flat line
[3] = target: cynomolgus monkey CTLA-4. his tag protein (cynomolgus monkey) (UniProt G7PL88); test: ELISA on coated cynomolgus monkey CTLA-4 his tag protein, goat anti-human IgG-Fc HRP; unit from the axis; the isotype curve is flat at OD450 0, so the number comes from a fit of a flat line
Sequence of UniProt G7PL88 (G7PL88 entry or part of it limits assumed): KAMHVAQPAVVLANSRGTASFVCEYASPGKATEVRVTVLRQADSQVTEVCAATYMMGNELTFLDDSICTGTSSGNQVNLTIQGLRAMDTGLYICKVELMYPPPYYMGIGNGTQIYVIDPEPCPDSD

Sequence of UniProt P09793 (P09793 36-161 limits assumed): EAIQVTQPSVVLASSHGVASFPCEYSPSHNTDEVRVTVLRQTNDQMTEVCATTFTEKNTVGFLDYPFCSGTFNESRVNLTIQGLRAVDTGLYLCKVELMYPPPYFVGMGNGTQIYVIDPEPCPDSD
Sequence of UniProt P16410 (P16410 36-161 limits assumed): as the sequence (G7PL88 entry or part of it limits assumed) above, with N14S, T18I, M106L counted along it

EC50 [1]: 5.74 nM
EC50 [2]: 5.74 nM
EC50 [3]: 5.74 nM
Substance: Isotype (antibody)
